# T1: GST-HYH (Arabidopsis thaliana, UniProt Q8W191 1-149)
# T1 sequence: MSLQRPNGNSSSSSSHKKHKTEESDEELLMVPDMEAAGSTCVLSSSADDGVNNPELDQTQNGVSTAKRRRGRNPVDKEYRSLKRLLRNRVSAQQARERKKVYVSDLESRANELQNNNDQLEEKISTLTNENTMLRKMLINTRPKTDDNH
# T2: His-HY5 (Arabidopsis thaliana, UniProt O24646 1-168)
# T2 sequence: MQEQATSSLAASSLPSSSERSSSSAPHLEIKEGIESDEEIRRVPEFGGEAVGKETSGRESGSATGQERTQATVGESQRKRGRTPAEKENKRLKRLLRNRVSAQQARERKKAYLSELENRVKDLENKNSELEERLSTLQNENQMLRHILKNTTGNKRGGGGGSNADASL
# T3: His-RSM1 (Arabidopsis thaliana, UniProt Q9SIJ5 1-101)
# T3 sequence: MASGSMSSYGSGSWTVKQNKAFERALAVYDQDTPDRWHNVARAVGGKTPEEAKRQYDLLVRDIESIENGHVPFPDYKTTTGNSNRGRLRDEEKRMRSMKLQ
# T4: GST-HY5 (Arabidopsis thaliana, UniProt O24646 1-168)
# T4 sequence: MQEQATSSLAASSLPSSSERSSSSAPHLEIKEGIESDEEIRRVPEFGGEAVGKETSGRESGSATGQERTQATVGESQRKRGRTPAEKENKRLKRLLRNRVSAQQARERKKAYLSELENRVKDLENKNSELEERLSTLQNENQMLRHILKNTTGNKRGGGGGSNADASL
# T5: GST-HY5 (ELONGATED HYPOCOTYL 5) (Arabidopsis, UniProt O24646 1-168)
# T5 construct: HY5 (ELONGATED HYPOCOTYL 5), bZIP transcription factor, Arabidopsis, At5g11260; the CDS cloned into the EcoRI and XhoI sites of pGEX-4T-1
# T5 sequence (looked up): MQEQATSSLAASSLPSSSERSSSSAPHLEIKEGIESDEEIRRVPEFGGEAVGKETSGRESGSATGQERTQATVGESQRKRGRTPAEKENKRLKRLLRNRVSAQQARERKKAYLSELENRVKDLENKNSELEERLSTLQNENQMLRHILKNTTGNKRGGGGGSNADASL
# Legend:
# [1] = target: T1, GST-HYH; test: competition; unlabeled competitor vs N1; EMSA: 2 ug protein in 20 uL, 10 mM Tris-HCl pH 7.5, 50 mM KCl, 1 mM DTT, 50 ng/uL poly(dI-dC), 25 C, 20 min; 4-6% native PAGE, 0.5x TBE; settings: protein: recombinant; tags: GST (pGEX-4T-1); chain copies: 2; label: unlabeled
# [2] = target: T2, His-HY5; test: as above; settings: protein: recombinant; tags: His; chain copies: 2; label: unlabeled
# [3] = target: T1, GST-HYH; test: EMSA; EMSA: 2 ug protein in 20 uL, 10 mM Tris-HCl pH 7.5, 50 mM KCl, 1 mM DTT, 50 ng/uL poly(dI-dC), 25 C, 20 min; 4-6% native PAGE, 0.5x TBE; settings: protein: recombinant; tags: GST (pGEX-4T-1); chain copies: 2; label: biotin 5'
# [4] = target: T2, His-HY5; test: as above; settings: protein: recombinant; tags: His; chain copies: 2; label: biotin 5'
# [5] = target: T3, His-RSM1; test: as above; settings: protein: recombinant, tags: His (pET28a)
# [6] = target: T4, GST-HY5; test: as above; settings: protein: recombinant; tags: GST (pGEX-4T-1 in Methods); chain copies: 2; label: biotin 5' on both strands; blunt
# [7] = target: T5, GST-HY5 (ELONGATED HYPOCOTYL 5); test: pull-down; 2 ug GST or GST fusion protein mixed with 2 ug His-RSM1 in 500 uL GST binding buffer (50 mM Tris-HCl pH 7.5, 100 mM NaCl, 0.1% Nonidet P-40), Glutathione Sepharose 4B beads, 4 C, 2 h; four washes; immunoblot with anti-GST or anti-His; settings: both partners purified
binder,measurement,setting,value
RSM1 promoter m3 competitor (dsDNA) DNA 1: ATCTAGAGAATGACGTCATAACTGTCGG DNA 2: CCGACAGTTATGACGTCATTCTCTAGAT,binding result,[1],binds
same,binding result,[2],binds
RSM1 promoter m1 competitor (dsDNA) DNA 1: GCTGCAAGAATGACGTCATAACCACTAA DNA 2: TTAGTGGTTATGACGTCATTCTTGCAGC,binding result,[1],binds
same,binding result,[2],binds
RSM1 promoter C-box probe (WT) (dsDNA) DNA 1: ATCTAGAGAATGACGTCATAACCACTAA DNA 2: TTAGTGGTTATGACGTCATTCTCTAGAT,binding result,[3],binds
same,binding result,[4],binds
RSM1 promoter m2 competitor (dsDNA) DNA 1: ATCTAGAGAATAGTACTATAACCACTAA DNA 2: TTAGTGGTTATAGTACTATTCTCTAGAT,binding result,[1],no binding
same,binding result,[2],no binding
RSM1 promoter P1 (dsDNA) DNA 1: GAGACTTGTCCCTAACTTTCAACCAAAGACTTGTAATTTTCCGCGAGCAC DNA 2: GTGCTCGCGGAAAATTACAAGTCTTTGGTTGAAAGTTAGGGACAAGTCTC,binding result,[5]; label: biotin 5',binds
ABI5 promoter probe (HY5 site) (dsDNA) DNA 1: CCTTATGCAGTGAATAGTCCACGTGCACTCCCAATGGAAGTTCGGAATC DNA 2: GATTCCGAACTTCCATTGGGAGTGCACGTGGACTATTCACTGCATAAGG,binding result,"[5]; label: biotin 5' on both strands, blunt",no binding
same,binding result,[6],binds
RSM1 promoter P2 (dsDNA) DNA 1: GTGAGCTTTGTGCTCTGATTAGAGACCAGACTGTTCCATGAATTAAGTAC DNA 2: GTACTTAATTCATGGAACAGTCTGGTCTCTAATCAGAGCACAAAGCTCAC,binding result,[5]; label: biotin 5',binds
"His-RSM1 (RADIALIS-LIKE SANT/MYB 1) (natural protein, Arabidopsis, UniProt Q9SIJ5 1-101, looked up, the CDS of RSM1 cloned into the BamHI and SacI sites of pET28a; also called MEE3; MATERNAL EFFECT EMBRYO ARREST 3; source: E. coli BL21 (pET28a-RSM1, 1 mM IPTG), purified with Ni-NTA beads) MASGSMSSYGSGSWTVKQNKAFERALAVYDQDTPDRWHNVARAVGGKTPEEAKRQYDLLVRDIESIENGHVPFPDYKTTTGNSNRGRLRDEEKRMRSMKLQ",binding result,[7],binds

# Reference: article PMC6317822, “RSM1, an Arabidopsis MYB protein, interacts with HY5/HYH to modulate seed germination and seedling development in response to abscisic acid and salinity” (PLoS Genetics, 2018)
